From doi:10.1101/2025.03.24.644915

Columns and labels:
[1] = target: VP4 spike protein, uncleaved (NTR spike), simian rotavirus A strain SA11 clone C4111 (simian rotavirus A strain SA11 (clone C4111)); test: cryo-EM structure; purified NTR-TLP (made without trypsin, with leupeptin); single particle analysis with icosahedral symmetry, 3.40 Å; spike by localized reconstruction, 3D classification, optical flow (EnRICH) and LocSpiral
[2] = target: VP7 glycoprotein, rotavirus SA11 clone C4111 (simian rotavirus A strain SA11 (clone C4111)); test: cryo-EM structure; purified TR-TLP (made in the presence of trypsin); single particle analysis with icosahedral symmetry, 3.48 Å; spike by localized reconstruction, 3D classification, optical flow (EnRICH) and LocSpiral
[3] = target: VP7 glycoprotein, rotavirus SA11 clone C4111 (simian rotavirus A strain SA11 (clone C4111)); test: cryo-EM structure; purified NTR-TLP (made without trypsin, with leupeptin); single particle analysis with icosahedral symmetry, 3.40 Å; spike by localized reconstruction, 3D classification, optical flow (EnRICH) and LocSpiral
[4] = target: VP6 protein, rotavirus SA11 clone C4111 (simian rotavirus A strain SA11 (clone C4111)); test: cryo-EM structure; purified TR-TLP (made in the presence of trypsin); single particle analysis with icosahedral symmetry, 3.48 Å; spike by localized reconstruction, 3D classification, optical flow (EnRICH) and LocSpiral
[5] = target: VP6 protein, rotavirus SA11 clone C4111 (simian rotavirus A strain SA11 (clone C4111)); test: cryo-EM structure; purified NTR-TLP (made without trypsin, with leupeptin); single particle analysis with icosahedral symmetry, 3.40 Å; spike by localized reconstruction, 3D classification, optical flow (EnRICH) and LocSpiral

With “VP4 spike protein, uncleaved (NTR spike), simian rotavirus A strain SA11 clone C4111 (natural protein)” the stoichiometry N [1] was 3.

For “VP7 glycoprotein, rotavirus SA11 clone C4111 (natural protein)”, the stoichiometry N [2] was 3 and the stoichiometry N [3] was 3.

“VP6 protein, rotavirus SA11 clone C4111 (natural protein)” was tested, and the stoichiometry N [4] was 3 and the stoichiometry N [5] was 3.
